Source: US20220289837A1 (VIB VZW, published 2022)

How the values were obtained:
[1] = target: T1, Purified human wt-CFTR (His10-SUMO*-CFTRFLAG-EGFP), PKA phosphorylated (human, UniProt P13569 1-1480, PKA phosphorylated (sites not given)); assay: ELISA, purified wt-CFTR immobilised on nickel-coated plate, nanobody titrated
T1 construct: Expressed in HEK293 cell line D165, purified on NiNTA in DMNG detergent; used for the full-length CFTR ELISA and the ATPase assays; also called FL-CFTR; full-length CFTR; not shown: N-terminal His10-SUMO* tag; FLAG tag and enhanced green fluorescent protein (EGFP)
T1 sequence (P13569 whole entry): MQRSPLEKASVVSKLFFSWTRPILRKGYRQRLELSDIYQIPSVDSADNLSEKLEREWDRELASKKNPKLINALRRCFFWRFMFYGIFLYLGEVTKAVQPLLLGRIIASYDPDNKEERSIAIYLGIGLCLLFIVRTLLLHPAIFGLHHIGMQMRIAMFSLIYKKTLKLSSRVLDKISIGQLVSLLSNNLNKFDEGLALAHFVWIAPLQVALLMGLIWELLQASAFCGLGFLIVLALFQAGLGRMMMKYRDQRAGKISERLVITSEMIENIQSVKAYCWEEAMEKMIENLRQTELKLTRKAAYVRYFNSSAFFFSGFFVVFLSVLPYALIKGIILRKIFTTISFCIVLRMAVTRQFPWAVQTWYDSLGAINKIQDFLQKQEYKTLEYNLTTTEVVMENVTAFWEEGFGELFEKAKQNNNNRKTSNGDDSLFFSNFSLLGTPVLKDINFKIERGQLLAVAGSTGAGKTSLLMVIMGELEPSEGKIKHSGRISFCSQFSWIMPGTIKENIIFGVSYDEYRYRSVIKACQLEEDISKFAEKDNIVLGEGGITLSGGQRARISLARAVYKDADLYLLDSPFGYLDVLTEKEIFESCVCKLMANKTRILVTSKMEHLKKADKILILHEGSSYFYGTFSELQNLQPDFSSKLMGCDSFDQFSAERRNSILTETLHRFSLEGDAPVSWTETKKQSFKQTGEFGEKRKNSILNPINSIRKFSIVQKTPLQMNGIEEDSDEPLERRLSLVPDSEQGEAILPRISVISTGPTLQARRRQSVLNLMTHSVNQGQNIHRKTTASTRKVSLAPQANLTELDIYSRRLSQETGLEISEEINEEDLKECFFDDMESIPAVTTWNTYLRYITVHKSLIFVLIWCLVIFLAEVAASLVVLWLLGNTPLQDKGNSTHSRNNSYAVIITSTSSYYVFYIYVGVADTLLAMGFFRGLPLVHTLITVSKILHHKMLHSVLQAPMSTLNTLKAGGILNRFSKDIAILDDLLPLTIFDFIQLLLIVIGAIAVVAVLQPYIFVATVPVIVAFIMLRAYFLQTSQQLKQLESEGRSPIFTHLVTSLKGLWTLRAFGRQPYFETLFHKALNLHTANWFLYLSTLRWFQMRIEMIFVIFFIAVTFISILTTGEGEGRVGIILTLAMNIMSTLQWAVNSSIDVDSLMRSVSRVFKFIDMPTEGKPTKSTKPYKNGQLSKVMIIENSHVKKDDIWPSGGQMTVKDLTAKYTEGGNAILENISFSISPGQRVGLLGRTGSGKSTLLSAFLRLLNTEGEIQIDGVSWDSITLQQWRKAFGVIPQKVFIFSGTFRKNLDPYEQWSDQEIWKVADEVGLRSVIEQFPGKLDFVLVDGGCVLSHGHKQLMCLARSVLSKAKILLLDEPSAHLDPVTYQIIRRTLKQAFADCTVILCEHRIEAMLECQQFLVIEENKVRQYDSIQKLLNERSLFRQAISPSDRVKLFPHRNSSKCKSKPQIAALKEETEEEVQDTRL
Excerpt: (§1) Quantification of at least 3 independent experiments (±SEM). (g) Immunoblot of CFTR from solubilized BHK-21 cells pulled-down with His-tagged nanobodies, including a non-CFTR nanobody as a control. Eluted nanobodies-CFTR complexes were separated by SDS-PAGE and presence of CFTR was detected with mAb 596 antibody after immunoblotting. Arrows indicate the mature (band C) and immature (band B) forms of CFTR. Representative of at least 3 independent experiments. (FIG. 4H) Flow cytometry analysis of nanobodies T2a, T8 and G3a on BHK-21 cells expressing 2PT-F508del showing increased labelling for T2a and G3a, but not T8. (FIG. 4I) Quantification of data illustrated in […]. Average of 3 independent experiments (±SEM).
(§2) Strep-Tactin XT coated microplate (iba Life Science) was coated overnight at 4° C. with Twin-Strep-tagged nanobodies (5 μg/ml). […] CFTR binding was detected with monoclonal antibodies L12B4, MM13, 154, 660, 570, 596 specific to CFTR obtained from the CFTR Antibody Distribution Program (http://cftrantibodies.web.unc.edu/available-antibodies)46 and then anti-mouse-HRP antibody (Millipore, catalogue number: AP308P, 0.5 μg/ml) for 1 h 30 min at 4° C. […] Nanobody binding was detected with Myc-tag specific antibody (Sigma, catalogue number: C3956, 0.5 μg/ml) and then anti-rabbit-HRP antibody (Cell Signaling, catalogue number: 7074S, 1:1000 dilution) for 1 h 30 min at 4° C. […]

[2] = target: T2, 2PT-NBD1 (human CFTR nucleotide-binding domain 1, residues 387-646, with S492P, A534P, I539T) (human, UniProt P13569 388-646, biotinylated for the ELISA (sites not given)); assay: ITC, nanobody titrated into 2PT-NBD1 at 20 °C, one-site model
T2 construct: N-terminal His6-SUMO tag removed with Ulp1; In the T2a-T4 and T27 crystals the domain was cut by papain or subtilisin
T2 sequence (P13569 388-646 V470M/S492P/A534P/I539T limits assumed): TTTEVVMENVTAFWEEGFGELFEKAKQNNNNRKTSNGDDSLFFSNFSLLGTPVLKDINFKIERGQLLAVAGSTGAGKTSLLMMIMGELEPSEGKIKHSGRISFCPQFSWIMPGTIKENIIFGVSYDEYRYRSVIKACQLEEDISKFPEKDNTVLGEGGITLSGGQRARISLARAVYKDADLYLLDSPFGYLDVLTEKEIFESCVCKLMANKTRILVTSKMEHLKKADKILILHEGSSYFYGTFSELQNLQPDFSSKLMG
Procedure: Isothermal titration calorimetry (ITC) was used to characterize the thermodynamic parameters of the binding (FIG. 1e and FIG. 9). […] These KD values are similar to those measured for other in vivo matured camelid heavy-chain antibodies interacting with their ligands^{[20]}. The thermodynamic parameters of the interaction of nanobodies with 2PT-NBD1 were determined based on these ITC measurements (FIG. 1e and FIG. 9).
Interactions between nanobodies and 2PT-NBD1 was carried out on NanoITC system (TA Instruments) in 0.165 ml cells at 20° C., 300 rpm syringe stirring. Proteins were extensively dialyzed in 20 mM Hepes buffer pH 7.5, 150 mM NaCl, 10% (w/v) glycerol, 10% (w/v) ethylene glycol, 2 mM ATP and 3 mM MgCl₂ for 16 h at 4° C. Heat of dilution from control experiments of each nanobody titrated into buffer was subtracted from the titration into 2PT-NBD1. Data were integrated analyzed with Origin 7.0 software (Origin Lab Corp.).

[3] = target: T2, 2PT-NBD1 (human CFTR nucleotide-binding …); assay: cell-based or functional assay
[4] = target: T1, Purified human wt-CFTR …; assay: cell-based or functional assay
[5] = target: T1, Purified human wt-CFTR …; assay: ELISA, Twin-Strep nanobody immobilised, concentration of purified wt-CFTR varied
Excerpt: as §1, §2

[6] = target: Stabilized human CFTR (stab-CFTR: 2PT/ΔRI/R1048A_1172X) (human, UniProt P13569 1-1171, limits assumed); assay: cell-based or functional assay
Sequence of Stabilized human CFTR (stab-CFTR: 2PT/ΔRI/R1048A_1172X) (P13569 other isoform, or with tags, fused parts or gaps R1048A R1048A limits assumed): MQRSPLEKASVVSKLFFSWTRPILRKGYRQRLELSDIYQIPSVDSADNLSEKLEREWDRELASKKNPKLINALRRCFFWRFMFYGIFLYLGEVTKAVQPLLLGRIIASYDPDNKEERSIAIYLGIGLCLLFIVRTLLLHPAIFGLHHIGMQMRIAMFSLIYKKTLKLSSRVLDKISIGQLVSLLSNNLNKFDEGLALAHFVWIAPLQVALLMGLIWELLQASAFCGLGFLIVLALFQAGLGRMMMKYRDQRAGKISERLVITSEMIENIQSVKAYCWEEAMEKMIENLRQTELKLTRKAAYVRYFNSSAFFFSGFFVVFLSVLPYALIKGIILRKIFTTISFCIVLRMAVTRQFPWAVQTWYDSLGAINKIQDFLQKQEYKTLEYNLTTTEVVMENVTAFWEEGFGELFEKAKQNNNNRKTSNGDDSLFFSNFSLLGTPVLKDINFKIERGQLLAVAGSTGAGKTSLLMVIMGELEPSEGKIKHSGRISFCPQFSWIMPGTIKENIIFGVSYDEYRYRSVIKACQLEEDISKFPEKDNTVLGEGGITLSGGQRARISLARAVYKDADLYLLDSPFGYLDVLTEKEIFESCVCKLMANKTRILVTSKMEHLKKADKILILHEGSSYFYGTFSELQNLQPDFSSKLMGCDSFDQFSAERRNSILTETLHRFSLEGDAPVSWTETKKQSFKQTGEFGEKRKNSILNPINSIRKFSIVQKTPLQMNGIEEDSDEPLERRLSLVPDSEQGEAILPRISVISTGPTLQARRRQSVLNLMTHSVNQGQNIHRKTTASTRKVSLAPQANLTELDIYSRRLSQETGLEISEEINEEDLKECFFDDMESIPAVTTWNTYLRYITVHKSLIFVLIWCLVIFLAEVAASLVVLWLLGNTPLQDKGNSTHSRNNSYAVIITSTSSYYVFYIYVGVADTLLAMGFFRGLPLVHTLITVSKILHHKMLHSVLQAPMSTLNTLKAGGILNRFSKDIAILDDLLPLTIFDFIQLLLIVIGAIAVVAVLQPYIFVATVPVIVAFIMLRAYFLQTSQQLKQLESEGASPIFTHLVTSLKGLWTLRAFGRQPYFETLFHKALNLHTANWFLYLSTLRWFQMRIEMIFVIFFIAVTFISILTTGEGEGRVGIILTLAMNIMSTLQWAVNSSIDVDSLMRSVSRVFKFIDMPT

Row | Binder | EC50 (read off the curve) [1] [nM] | ΔG [2] [kcal/mol] | ΔH [2] [kcal/mol] | increase of Tm (thermal shift assay, DSF) [3] [°C] | ATPase activity (% of PKA-phosphorylated CFTR) [4] [%] | EC50 (read off the curve) [5] [nM] | Tm of stab-CFTR in complex with the nanobody (nanoDSF, first derivative of 350 nm fluorescence); 'stab-CFTR (51.4°C)', 'T2a (66.6°C)' alone [6] [°C]
1 | Nanobody T8 (VHH, not shown: small tags and cut ends, Llama nanobody; also called Nb T8; T8 Nb) VHH: QVQLQESGGGLVQPGGSLRLSCAASGSTSSINAMGWYRQAPGKQREPVAISSSGGDTRYAEPVKGRFTISRDNAQNKVYLQMNSLKPEDTAVYYCWLNWGRTSVNSWGQGTQVTVSS | ~300 | -9.94 | -15.5 | 9.3 | 60 | ~2 | –
2 | Nanobody T2a (VHH, not shown: small tags and cut ends, Llama nanobody; also called Nb T2a; T2a Nb) VHH: QVQLQESGGGLVQAGGSLRLSCAASGSIFRIDAMGWYRQAPGKQRELVAHSTSGGSTDYADSVKGRFTISRDNAKNTVYLQMNSLKPEDTAVYYCNADVRTRWYASNNYWGQGTQVTVSS | ~200 | -9.7 | -13.8 | 11.2 | 50 | ~3 | 59.7
